B1: rat C-reactive protein purified from rat serum (natural protein, UniProt P48199 20-230, looked up)
chain: HEDMSKQAFVFPGVSATAYVSLEAESKKPLEAFTVCLYAHADVSRSFSIFSYATKTSFNEILLFWTRGQGFSIAVGGPEILFSASEIPEVPTHICATWESATGIVELWLDGKPRVRKSLQKGYIVGTNASIILGQEQDSYGGGFDANQSLVGDIGDVNMWDFVLSPEQINAVYVGRVFSPNVLNWRALKYETHGDVFIKPQLWPLTDCCES
notes: C-reactive protein, rat, endogenous protein from serum; Homopentamer by negative-stain EM and SEC; also called rCRP; rat CRP; source: purified from serum of turpentine-injected Wistar rats (p-Aminophenyl Phosphoryl Choline Agarose, DEAE, SEC)
B2: recombinant rat CRP with N-terminal Strep-tag II, secreted from E. coli BL21 (DE3) (natural protein, UniProt P48199 20-230, looked up)
chain: B1 chain
notes: C-reactive protein, rat, wild type, cDNA by NM_017096.3; so no native signal peptide; A bacterial signal peptide stood before the tag for secretion (text: alkaline phosphatase, ALP); also called rCRP; rCRPwt-pET42c
B3: recombinant rat CRP with C-terminal 6×His tag, secreted from Pichia pastoris GS115 (natural protein, UniProt P48199 20-230, looked up)
chain: B1 chain
notes: C-reactive protein, rat, wild type; the reverse primer ends at ...DCCES followed by GA and six histidines; Secreted by the S. cerevisiae alpha-factor signal of pPIC9K; By the reverse primer a Gly-Ala stands between CRP and the His6 tag; also called rCRP; rCRP-6×His fusion protein; source: P. pastoris GS115, secreted into the culture medium, purified (Ni2+-NTA, p-Aminophenyl Phosphoryl Choline …)

What was measured:
[1] = target: the molecule itself; experiment: negative-stain electron microscopy; CRP diluted to 0.15-0.3 mg/mL in 20 mM Tris pH 6.8, 150 mM NaCl, 2 mM CaCl2, 1-2 h at 18°C, 1% uranyl acetate; self-association, pentamer
[2] = target: the molecule itself; experiment: SDS-PAGE and Western blot, non-reduced against reduced; yeast-secreted rCRP-6×His without or with 20 mM DTT, anti-His detection; disulfide-linked dimer of subunits

Protein	stoichiometry N [1]	stoichiometry N [2]
B1	5	–
B2	5	–
B3	5	2

Source: article PMC11381232, “Efficient expression and purification of rat CRP in Pichia pastoris” (Frontiers in Immunology, 2024)
